# Where “and” joins values, the source holds several entries; their conditions need not be identical. Equal entries are not always repeated.
# Experiments:
# [1] = biological target: human erythrocyte spectrin (human, UniProt P02549;P11277); assay: co-sedimentation
# [2] = biological target: chicken skeletal muscle actin (chicken, UniProt P68139 1-377); assay: co-sedimentation
# Sequence of human erythrocyte spectrin (P02549 whole entry, chain 1 of 2): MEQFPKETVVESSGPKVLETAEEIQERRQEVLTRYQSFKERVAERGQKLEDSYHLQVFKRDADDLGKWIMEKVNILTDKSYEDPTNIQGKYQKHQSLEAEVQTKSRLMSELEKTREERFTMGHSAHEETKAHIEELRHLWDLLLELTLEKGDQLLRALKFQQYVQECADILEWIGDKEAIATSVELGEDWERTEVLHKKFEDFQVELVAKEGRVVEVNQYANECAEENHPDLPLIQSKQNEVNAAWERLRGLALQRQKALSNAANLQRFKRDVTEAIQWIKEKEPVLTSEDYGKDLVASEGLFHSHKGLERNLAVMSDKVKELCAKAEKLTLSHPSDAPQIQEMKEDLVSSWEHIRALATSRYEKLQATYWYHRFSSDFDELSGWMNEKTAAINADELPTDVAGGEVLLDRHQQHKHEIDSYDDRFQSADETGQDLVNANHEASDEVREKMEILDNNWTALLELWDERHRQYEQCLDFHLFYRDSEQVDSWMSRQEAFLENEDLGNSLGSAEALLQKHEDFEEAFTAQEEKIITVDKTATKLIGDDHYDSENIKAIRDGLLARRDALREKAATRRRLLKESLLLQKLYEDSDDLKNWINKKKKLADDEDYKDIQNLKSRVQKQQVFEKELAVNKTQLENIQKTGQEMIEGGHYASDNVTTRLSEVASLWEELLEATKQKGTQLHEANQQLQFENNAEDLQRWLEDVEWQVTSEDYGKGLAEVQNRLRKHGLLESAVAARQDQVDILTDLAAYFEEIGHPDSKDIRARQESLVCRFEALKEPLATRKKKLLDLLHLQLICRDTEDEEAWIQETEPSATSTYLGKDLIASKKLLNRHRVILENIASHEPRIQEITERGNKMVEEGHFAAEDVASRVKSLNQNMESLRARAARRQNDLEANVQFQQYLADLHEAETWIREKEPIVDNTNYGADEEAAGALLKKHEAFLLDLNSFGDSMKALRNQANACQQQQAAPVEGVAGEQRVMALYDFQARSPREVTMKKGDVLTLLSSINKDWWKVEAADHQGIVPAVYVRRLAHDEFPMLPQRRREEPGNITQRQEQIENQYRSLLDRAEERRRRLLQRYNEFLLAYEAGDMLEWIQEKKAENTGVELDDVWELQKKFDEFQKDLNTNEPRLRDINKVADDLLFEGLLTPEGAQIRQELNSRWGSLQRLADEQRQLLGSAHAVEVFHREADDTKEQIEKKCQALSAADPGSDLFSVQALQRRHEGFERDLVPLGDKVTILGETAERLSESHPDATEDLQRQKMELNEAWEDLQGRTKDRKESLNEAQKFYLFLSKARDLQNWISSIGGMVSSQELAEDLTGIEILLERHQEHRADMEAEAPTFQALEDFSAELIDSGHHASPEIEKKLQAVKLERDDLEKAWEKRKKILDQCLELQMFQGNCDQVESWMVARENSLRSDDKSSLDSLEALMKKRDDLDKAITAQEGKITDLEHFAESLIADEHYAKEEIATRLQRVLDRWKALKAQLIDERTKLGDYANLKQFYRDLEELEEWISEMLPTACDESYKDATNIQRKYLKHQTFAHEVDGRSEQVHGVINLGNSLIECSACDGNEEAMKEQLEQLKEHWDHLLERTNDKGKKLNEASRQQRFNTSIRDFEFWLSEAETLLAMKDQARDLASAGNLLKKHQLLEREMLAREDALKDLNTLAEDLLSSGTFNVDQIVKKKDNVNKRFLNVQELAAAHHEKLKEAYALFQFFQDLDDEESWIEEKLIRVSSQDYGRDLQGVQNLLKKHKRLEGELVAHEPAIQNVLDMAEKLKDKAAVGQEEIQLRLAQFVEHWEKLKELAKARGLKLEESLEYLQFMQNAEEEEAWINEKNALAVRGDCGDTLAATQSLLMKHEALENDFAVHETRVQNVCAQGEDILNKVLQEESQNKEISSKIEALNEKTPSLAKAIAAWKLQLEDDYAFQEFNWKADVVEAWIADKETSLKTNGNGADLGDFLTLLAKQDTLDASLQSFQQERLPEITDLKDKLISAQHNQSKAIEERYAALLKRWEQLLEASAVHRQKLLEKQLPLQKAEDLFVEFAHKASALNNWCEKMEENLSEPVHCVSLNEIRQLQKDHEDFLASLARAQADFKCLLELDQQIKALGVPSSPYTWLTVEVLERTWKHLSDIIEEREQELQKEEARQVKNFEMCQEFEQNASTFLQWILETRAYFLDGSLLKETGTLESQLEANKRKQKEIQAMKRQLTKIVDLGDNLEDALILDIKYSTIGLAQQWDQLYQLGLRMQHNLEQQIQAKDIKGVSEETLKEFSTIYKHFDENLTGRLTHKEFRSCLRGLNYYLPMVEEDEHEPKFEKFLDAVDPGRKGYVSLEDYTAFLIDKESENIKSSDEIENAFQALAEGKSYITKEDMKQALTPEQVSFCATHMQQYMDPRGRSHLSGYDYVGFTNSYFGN
# Sequence of human erythrocyte spectrin (P11277 whole entry, chain 2 of 2): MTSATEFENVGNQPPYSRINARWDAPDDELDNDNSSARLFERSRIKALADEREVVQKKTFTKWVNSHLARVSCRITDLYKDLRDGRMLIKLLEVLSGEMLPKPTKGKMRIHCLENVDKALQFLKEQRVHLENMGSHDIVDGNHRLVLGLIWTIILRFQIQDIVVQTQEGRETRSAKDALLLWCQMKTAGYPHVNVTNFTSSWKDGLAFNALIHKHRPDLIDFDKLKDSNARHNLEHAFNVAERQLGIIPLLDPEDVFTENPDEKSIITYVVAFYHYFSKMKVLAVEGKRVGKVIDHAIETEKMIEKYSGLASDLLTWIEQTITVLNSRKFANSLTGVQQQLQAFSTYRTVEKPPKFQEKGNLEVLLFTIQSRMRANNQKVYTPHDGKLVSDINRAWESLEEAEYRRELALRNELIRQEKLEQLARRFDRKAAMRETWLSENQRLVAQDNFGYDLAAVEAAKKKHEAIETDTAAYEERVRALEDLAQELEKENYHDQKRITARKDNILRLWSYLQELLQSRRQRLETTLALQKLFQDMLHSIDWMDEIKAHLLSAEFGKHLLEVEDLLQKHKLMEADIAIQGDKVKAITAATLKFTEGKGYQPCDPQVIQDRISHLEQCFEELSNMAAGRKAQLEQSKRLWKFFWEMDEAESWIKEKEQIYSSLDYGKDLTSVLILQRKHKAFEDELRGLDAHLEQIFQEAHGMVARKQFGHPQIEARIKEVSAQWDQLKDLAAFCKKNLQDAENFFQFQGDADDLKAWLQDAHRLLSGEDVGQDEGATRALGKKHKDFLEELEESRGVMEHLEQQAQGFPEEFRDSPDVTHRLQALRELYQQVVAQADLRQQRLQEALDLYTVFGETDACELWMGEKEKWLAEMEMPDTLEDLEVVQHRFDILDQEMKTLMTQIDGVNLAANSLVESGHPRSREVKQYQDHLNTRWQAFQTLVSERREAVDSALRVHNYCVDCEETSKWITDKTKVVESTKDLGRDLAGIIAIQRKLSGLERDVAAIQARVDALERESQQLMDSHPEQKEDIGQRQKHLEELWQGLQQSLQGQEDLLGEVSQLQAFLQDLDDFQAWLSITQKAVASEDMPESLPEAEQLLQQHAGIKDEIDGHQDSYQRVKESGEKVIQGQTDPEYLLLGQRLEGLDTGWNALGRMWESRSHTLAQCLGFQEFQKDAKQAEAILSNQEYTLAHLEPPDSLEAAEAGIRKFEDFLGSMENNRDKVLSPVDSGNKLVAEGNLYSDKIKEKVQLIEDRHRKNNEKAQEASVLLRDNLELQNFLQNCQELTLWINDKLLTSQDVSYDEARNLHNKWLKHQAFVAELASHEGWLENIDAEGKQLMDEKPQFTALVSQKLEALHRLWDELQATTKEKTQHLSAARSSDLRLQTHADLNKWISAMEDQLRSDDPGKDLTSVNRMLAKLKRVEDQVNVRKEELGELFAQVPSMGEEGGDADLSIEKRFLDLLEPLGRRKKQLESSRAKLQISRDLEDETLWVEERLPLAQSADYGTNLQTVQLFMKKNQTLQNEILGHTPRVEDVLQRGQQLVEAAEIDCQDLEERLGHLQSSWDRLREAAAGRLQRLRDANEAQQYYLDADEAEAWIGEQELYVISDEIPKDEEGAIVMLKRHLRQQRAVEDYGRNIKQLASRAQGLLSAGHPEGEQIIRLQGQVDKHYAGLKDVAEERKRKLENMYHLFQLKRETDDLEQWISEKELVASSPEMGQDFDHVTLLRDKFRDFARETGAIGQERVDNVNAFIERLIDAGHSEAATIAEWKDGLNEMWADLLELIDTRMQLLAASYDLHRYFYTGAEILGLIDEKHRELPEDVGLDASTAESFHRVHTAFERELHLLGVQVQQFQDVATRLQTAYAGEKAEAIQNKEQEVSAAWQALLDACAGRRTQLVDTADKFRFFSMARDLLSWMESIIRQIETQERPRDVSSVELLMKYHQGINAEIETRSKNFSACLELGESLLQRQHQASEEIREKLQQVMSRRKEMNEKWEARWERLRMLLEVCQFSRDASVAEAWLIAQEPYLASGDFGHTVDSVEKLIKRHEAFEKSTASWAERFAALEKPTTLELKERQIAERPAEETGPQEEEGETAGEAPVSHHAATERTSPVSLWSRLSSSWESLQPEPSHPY
binder,measurement,setting,value
adducin-actin complex (complex) chain 1: MNGDSRAAVVTSPPPTTAPHKERYFDRVDENNPEYLRERNMAPDLRQDFNMMEQKKRVSMILQSPAFCEELESMIQEQFKKGKNPTGLLALQQIADFMTTNVPNVYPAAPQGGMAALNMSLGMVTPVNDLRGSDSIAYDKGEKLLRCKLAAFYRLADLFGWSQLIYNHITTRVNSEQEHFLIVPFGLLYSEVTASSLVKINLQGDIVDRGSTNLGVNQAGFTLHSAIYAARPDVKCVVHIHTPAGAAVSAMKCGLLPISPEALSLGEVAYHDYHGILVDEEEKVLIQKNLGPKSKVLILRNHGLVSVGESVEEAFYYIHNLVVACEIQVRTLASAGGPDNLVLLNPEKYKAKSRSPGSPVGEGTGSPPKWQIGEQEFEALMRMLDNLGYRTGYPYRYPALREKSKKYSDVEVPASVTGYSFASDGDSGTCSPLRHSFQKQQREKTRWLNSGRGDEASEEGQNGSSPKSKTKWTKEDGHRTSTSAVPNLFVPLNTNPKEVQEMRNKIREQNLQDIKTAGPQSQVLCGVVMDRSLVQGELVTASKAIIEKEYQPHVIVSTTGPNPFTTLTDRELEEYRREVERKQKGSEENLDEAREQKEKSPPDQPAVPHPPPSTPIKLEEDLVPEPTTGDDSDAATFKPTLPDLSPDEPSEALGFPMLEKEEEAHRPPSPTEAPTEASPEPAPDPAPVAEEAAPSAVEEGAAADPGSDGSPGKSPSKKKKKFRTPSFLKKSKKKSDS chain 2: MSEETVPEAASPPPPQGQPYFDRFSEDDPEYMRLRNRAADLRQDFNLMEQKKRVTMILQSPSFREELEGLIQEQMKKGNNSSNIWALRQIADFMASTSHAVFPTSSMNVSMMTPINDLHTADSLNLAKGERLMRCKISSVYRLLDLYGWAQLSDTYVTLRVSKEQDHFLISPKGVSCSEVTASSLIKVNILGEVVEKGSSCFPVDTTGFCLHSAIYAARPDVRCIIHLHTPATAAVSAMKWGLLPVSHNALLVGDMAYYDFNGEMEQEADRINLQKCLGPTCKILVLRNHGVVALGDTVEEAFYKIFHLQAACEIQVSALSSAGGVENLILLEQEKHRPHEVGSVQWAGSTFGPMQKSRLGEHEFEALMRMLDNLGYRTGYTYRHPFVQEKTKHKSEVEIPATVTAFVFEEDGAPVPALRQHAQKQQKEKTRWLNTPNTYLRVNVADEVQRSMGSPRPKTTWMKADEVEKSSSGMPIRIENPNQFVPLYTDPQEVLEMRNKIREQNRQDVKSAGPQSQLLASVIAEKSRSPSTESQLMSKGDEDTKDDSEETVPNPFSQLTDQELEEYKKEVERKKLELDGEKETAPEEPGSPAKSAPASPVQSPAKEAETKSPLVSPSKSLEEGTKKTETSKAATTEPETTQPEGVVVNGREEEQTAEEILSKGLSQMTTSADTDVDTSKDKTESVTSGPMSPEGSPSKSPSKKKKKFRTPSFLKKSKKKEKVES chain 3: […],Kd,[1],0.104 µM
human erythrocyte adducin (complex) chain 1: MNGDSRAAVVTSPPPTTAPHKERYFDRVDENNPEYLRERNMAPDLRQDFNMMEQKKRVSMILQSPAFCEELESMIQEQFKKGKNPTGLLALQQIADFMTTNVPNVYPAAPQGGMAALNMSLGMVTPVNDLRGSDSIAYDKGEKLLRCKLAAFYRLADLFGWSQLIYNHITTRVNSEQEHFLIVPFGLLYSEVTASSLVKINLQGDIVDRGSTNLGVNQAGFTLHSAIYAARPDVKCVVHIHTPAGAAVSAMKCGLLPISPEALSLGEVAYHDYHGILVDEEEKVLIQKNLGPKSKVLILRNHGLVSVGESVEEAFYYIHNLVVACEIQVRTLASAGGPDNLVLLNPEKYKAKSRSPGSPVGEGTGSPPKWQIGEQEFEALMRMLDNLGYRTGYPYRYPALREKSKKYSDVEVPASVTGYSFASDGDSGTCSPLRHSFQKQQREKTRWLNSGRGDEASEEGQNGSSPKSKTKWTKEDGHRTSTSAVPNLFVPLNTNPKEVQEMRNKIREQNLQDIKTAGPQSQVLCGVVMDRSLVQGELVTASKAIIEKEYQPHVIVSTTGPNPFTTLTDRELEEYRREVERKQKGSEENLDEAREQKEKSPPDQPAVPHPPPSTPIKLEEDLVPEPTTGDDSDAATFKPTLPDLSPDEPSEALGFPMLEKEEEAHRPPSPTEAPTEASPEPAPDPAPVAEEAAPSAVEEGAAADPGSDGSPGKSPSKKKKKFRTPSFLKKSKKKSDS chain 2: MSEETVPEAASPPPPQGQPYFDRFSEDDPEYMRLRNRAADLRQDFNLMEQKKRVTMILQSPSFREELEGLIQEQMKKGNNSSNIWALRQIADFMASTSHAVFPTSSMNVSMMTPINDLHTADSLNLAKGERLMRCKISSVYRLLDLYGWAQLSDTYVTLRVSKEQDHFLISPKGVSCSEVTASSLIKVNILGEVVEKGSSCFPVDTTGFCLHSAIYAARPDVRCIIHLHTPATAAVSAMKWGLLPVSHNALLVGDMAYYDFNGEMEQEADRINLQKCLGPTCKILVLRNHGVVALGDTVEEAFYKIFHLQAACEIQVSALSSAGGVENLILLEQEKHRPHEVGSVQWAGSTFGPMQKSRLGEHEFEALMRMLDNLGYRTGYTYRHPFVQEKTKHKSEVEIPATVTAFVFEEDGAPVPALRQHAQKQQKEKTRWLNTPNTYLRVNVADEVQRSMGSPRPKTTWMKADEVEKSSSGMPIRIENPNQFVPLYTDPQEVLEMRNKIREQNRQDVKSAGPQSQLLASVIAEKSRSPSTESQLMSKGDEDTKDDSEETVPNPFSQLTDQELEEYKKEVERKKLELDGEKETAPEEPGSPAKSAPASPVQSPAKEAETKSPLVSPSKSLEEGTKKTETSKAATTEPETTQPEGVVVNGREEEQTAEEILSKGLSQMTTSADTDVDTSKDKTESVTSGPMSPEGSPSKSPSKKKKKFRTPSFLKKSKKKEKVES,Kd,[2],0.283 µM
same,stoichiometry N,[2],~0.143 M/M (adducin to actin) and 0.16 M/M (adducin to actin)

# From publication PMC2114693 (The Journal of Cell Biology, 1987)
